{"source": "patent US20250288675A1", "about": "(published 2025)", "key": {"[1]": {"biological_target": "T1, MAGE-A1 peptide on HLA-C*07:02 (human)", "T1 peptide": "VRFFFPSL", "test": "killing"}, "[2]": {"biological_target": "T2, MAGE-A1 peptide on HLA-A*02:01 (human)", "T2 peptide": "KVLEYVIKV", "test": "killing"}, "[3]": {"biological_target": "T3, MAGE-C2 peptide on HLA-B*07:02 (human)", "T3 peptide": "RAREFMELL", "test": "killing"}, "[4]": {"biological_target": "T4, HPV16 E7 peptide on HLA-A*02:01 (human)", "T4 peptide": "YMLDLQPET", "test": "killing"}, "[5]": {"biological_target": "T5, PRAME peptide on HLA-A*02:01 (human)", "T5 peptide": "SLLQHLIGL", "test": "activation reporter or marker", "excerpt": "(§1) Reporter HEK293T cells expressing exclusively HLA-A*02:01 and expressing a granzyme B-activated infrared fluorescent protein (IFP) were further engineered to express either MAGE-A1 or PRAME. The MAGE-A1 expressing cells were GFP-labeled, and the PRAME-positive cells were labeled with both GFP and CellTrace™ Violet to enable tracking in downstream flow cytometry readouts. When a TCR-T cell recognizes a target cell, it secretes cytotoxic granules into the target cell, triggering the target cell to become fluorescent (IFP-positive). The two target cells (i.e., PRAME- or MAGE-A1 positive) were mixed at a balanced ratio and co-cultured with MAGE-A1 TCR-T cells, PRAME TCR-T cells, or a multiplex product combining the two TCR-T cells. PRAME TCR-T cells and MAGE-A1 TCR-T cells were engineered from T cells from the same donor. The TCR-T cells corresponded to pan T cells engineered by lentivirus transduction using a delivery vector employing MGTM modification and co-delivering CD8α and CD8β co-receptor as described above (such as a Table 1). Donor-matched non-engineered T cells (NTC) were also included as a control. The experiment then measured the proportion of each subset of target (GFP-positive, MAGE-A1 target; GFP/CTV-positive, PRAME target) getting recognized and targeted by TCR-T cells as measured by the proportion of GFP or GFP/CTV becoming IFP-positive. […]"}, "[6]": {"biological_target": "T5, PRAME peptide on HLA-A*02:01", "test": "killing"}, "[7]": {"biological_target": "T2, MAGE-A1 peptide on HLA-A*02:01", "test": "activation reporter or marker", "excerpt": "as §1"}}}
{"binder": "MAGEA1 TCR 32-41 (TCR, V domains shown) Valpha: TQLLEQSPQFLSIQEGENLTVYCNSSSVFSSLQWYRQEPGEGPVLLVTVVTGGEVKKLKRLTFQFGDARKDSSLHITAAQPGDTGLYLCAGDESISYGKLTFGQGTILTVHP Vbeta: DAGVIQSPRHEVTEMGQEVTLRCKPISGHDYLFWYRQTMMRGLELLIYFNNNVPIDDSGMPEDRFSAKMPNASFSTLKIQPSEPRDSAVYFCASSFLGWNEKLFFGSGTQLSVL", "values": [{"measurement": "binding result", "setting": "[1]", "result": "recognises"}, {"measurement": "binding result", "setting": "[2]", "result": "no recognition"}]}
{"binder": "MAGEC2 TCR 8-3 (TCR, V domains shown) Valpha: ILNVEQSPQSLHVQEGDSTNFTCSFPSSNFYALHWYRWETAKSPEALFVMTLNGDEKKKGRISATLNTKEGYSYLYIKGSQPEDSATYLCASGSGGATNKLIFGTGTLLAVQP Vbeta: GEEVAQTPKHLVRGEGQKAKLYCAPIKGHSYVFWYQQVLKNEFKFLISFQNENVFDETGMPKERFSAKCLPNSPCSLEIQATKLEDSAVYFCASSQSRSLRGTEAFFGQGTRLTVV", "values": [{"measurement": "binding result", "setting": "[3]", "result": "recognises"}]}
{"binder": "E7-11-28 (TCR, V domains shown) Valpha: GQQVMQIPQYQHVQEGEDFTTYCNSSTTLSNIQWYKQRPGGHPVFLIQLVKSGEVKKQKRLTFQFGEAKKNSSLHITATQTTDVGTYFCAGIGSSNTGKLIFGQGTTLQVKP Vbeta: EPEVTQTPSHQVTQMGQEVILRCVPISNHLYFYWYRQILGQKVEFLVSFYNNEISEKSEIFDDQFSVERPDGSNFTLKIRSTKLEDSAMYFCAITGRVSYEQYFGPGTRLTVT", "values": [{"measurement": "binding result", "setting": "[4]", "result": "recognises"}]}
{"binder": "MAGEA1-278-1479 (TCR, V domains shown) Valpha: EDQVTQSPEALRLQEGESSSLNCSYTVSGLRGLFWYRQDPGKGPEFLFTLYSAGEEKEKERLKATLTKKESFLHITAPKPEDSATYLCAVSYGQNFVFGPGTRLSVLP Vbeta: EAGVTQSPTHLIKTRGQQATLRCSPISGHTSVYWYQQALGLGLQFLLWYDEGEERNRGNFPPRFSGRQFPNYSSELNVNALELEDSALYLCASSLGQLNTEAFFGQGTRLTVV", "values": [{"measurement": "binding result", "setting": "[1]", "result": "no recognition"}, {"measurement": "binding result", "setting": "[2]", "result": "recognises"}, {"measurement": "binding result", "setting": "[5]", "result": "no recognition"}]}
{"binder": "PRAME-425-366 (TCR, V domains shown) Valpha: AQTVTQSQPEMSVQEAETVTLSCTYDTSESDYYLFWYKQPPSRQMILVIRQEAYKQQNATENRFSVNFQKAAKSFSLKISDSQLGDAAMYFCAYRKTSYDKVIFGPGTSLSVIP Vbeta: AAGVIQSPRHLIKEKRETATLKCYPIPRHDTVYWYQQGPGQDPQFLISFYEKMQSDKGSIPDRFSAQQFSDYHSELNMSSLELGDSALYFCASSFARLEGRDNEQFFGPGTRLTVL", "values": [{"measurement": "binding result", "setting": "[6]", "result": "recognises"}, {"measurement": "binding result", "setting": "[7]", "result": "no recognition"}]}
